Measured values as given in PMC5149108.

Tests used:
Test in all cases: fluorescence anisotropy
A1-LCD = A1-LCD (UniProt P09651 186-251+304-372, internal_change)
A1-RRM = A1-RRM (UniProt P09651 14-184)
A1-FL (hnRNPA1) = A1-FL (hnRNPA1) (UniProt P09651 1-251+304-372, internal_change)

Measured: binding result

GGGCCCCCGGGUACCGAGCUGCUAAUCAAAACAAAACAAAAGCU (ssRNA) [fl-RNA44]
binds: A1-LCD | A1-RRM | A1-FL (hnRNPA1)
